Source: patent publication US20220016130

Target: His-BRD4-N (amino acids 1-500), O60885

B1: GST-SPOP (protein)
chain: MSRVPSPPPPAEMSSGPVAESWCYTQIKVVKFSYMWTINNFSFCREEMGEVIKSSTFSSGANDKLKWCLRVNPKGLDEESKDYLSLYLLLVSCPKSEVRAKFKFSILNAKGEETKAMESQRAYRFVQGKDWGFKKFIRRDFLLDEANGLLPDDKLTLFCEVSVVQDSVNISGQNTMNMVKVPECRLADELGGLWENSRFTDCCLCVAGQEFQAHKAILAARSPVFSAMFEHEMEESKKNRVEINDVEPEVFKEMMCFIYTGKAPNLDKMADDLLAAADKYALERLKVMCEDALCSNLSVENAAEILILADLHSADQLKTQAVDFINYHASDVLETSGWKSMVVSHPHLVAEAYRSLASAQCPFLGPPRKRLKQS
in vitro ubiquitination assay (western blot): The SPOP-CULLIN3-RBX1 complex was shown to catalyzed BRD4 ubiquitination in vitro
